# Laboratory results taken from the supplement of paper PMC10567573.
# ± gives the standard deviation.
# Test: protein stability index of a GFP-peptide fusion (GPS, HEK-293T) (PSI 1-6); higher = more stable
# [1] = treatment: DMSO, c terminus: a fixed tail appended
# [2] = treatment: MLN4924 1 uM, 8 h, c terminus: a fixed tail appended
# 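Also: 24-mer peptide tiles fused after GFP, lentivirally expressed, FACS-sorted into six equal bins by GFP/DsRed ratio, decoded by Illumina sequencing, PSI is the read-weighted mean bin number.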
Sequence,protein stability index [1],protein stability index [2],"protein stability index (treatment: DMSO, c terminus: native)","protein stability index (treatment: MLN4924 1 uM, 8 h, c terminus: native)"
MMGLAQIYKKYALQSAAGKDAAKQ [PDS5B],2.8 ± 0.27,3.23 ± 0.1,,
EQERRLSEARLSQRDLSPTAEDAE [FCHSD1],5.41 ± 0.23,5.6 ± 0.26,,
QYVYIAVMDYLPISSTSTKRTYWP [PLD5],3.01 ± 0.59,2.74 ± 0.29,,
IAAAVYIMDTVGNIWVCYASYVVF [SLC19A2],2.89 ± 0.13,2.87 ± 0.27,,
LLDSMCPASTPSVLSSEQEFQMFP [ETS2],3.94 ± 0.16,4.07 ± 0.28,,
IHPKSIDLDNYFTARRLLSQVRAL [NFE2L1],2.25 ± 0.32,2.54 ± 0.18,,
VDFNTLKSIGSEPHEDHVFLVANF [MATN2],2.06 ± 0.3,2.18 ± 0.18,,
KDKLGVWVYKNKLIFFGGYGYLPE [KLHDC2],2.25 ± 0.59,3.11 ± 1.6,,
GGFGSMLRALGAQIEKTTNREACR [SDE2],3.27 ± 0.41,3.34 ± 0.13,,
RPGPQSVPLQLSAHWQCGATLTQV [FCHO1],2.21 ± 0.23,2.43 ± 0.2,,
EDYSAEYIIQQGGWGTVFSLESEE [BCL2L13],4.17 ± 0.29,3.96 ± 0.46,,
LKEELAYLKKNHEEEMNALRGQVG [KRT17],4.01 ± 0.36,4.05 ± 0.66,,
ISKGEEPRAGKEESGVSVSNSQPT [SLC29A1],5.48 ± 0.24,5.52 ± 0.22,,
TVAGIVGSSYGILQLFSSTLVGCW [MFSD9],2.96 ± 0.83,2.89 ± 0.32,,
HTEASAQRSHMGKLKEPQPQDHKP,5.24 ± 0.71,5.24 ± 0.33,,
LSSIKRDTNSIAKAIKARGEVIHC [STX11],3.22 ± 0.19,3.32 ± 0.2,,
PLLKMDLNSEQAEQLERINDALSC [FAM98B],4.29 ± 0.24,4.36 ± 0.1,,
QLLFVIFLLLYLFTLGTNAIIIST [OR10K2],3.18 ± 0.37,3.19 ± 0.23,,
LANLRGLSEEERSEKAMLRSRIEE [CCDC89],4.67 ± 0.22,4.68 ± 0.12,,
SNFNYFYHRETEGEEQAQLLHVSS [KCNA1],3.95 ± 0.12,4.03 ± 0.34,,
KPYIAAHFDVLPTEFTLGDDKHYG [PTPRD],3.28 ± 0.49,3.44 ± 0.14,,
KNWRNFASKWGMSYDELCFLEQRP [EDARADD],2.06 ± 0.18,2.02 ± 0.23,,

Sequence,protein stability index [1],protein stability index [2],"protein stability index (treatment: DMSO, c terminus: native)","protein stability index (treatment: MLN4924 1 uM, 8 h, c terminus: native)"
DDIKESLESEGKNSKKEEPQELLQ [ATE1],5.65 ± 0.2,5.61 ± 0.13,,
AMFRLEHGEADRSTLKKALPTLSH [YJU2B],3.33 ± 0.16,3.38 ± 0.17,,
INYKLKSVAHLPWRMLTYKALNTF [CLPTM1],2.44 ± 0.65,2.31 ± 0.36,,
DAGPMVVHCSAGVGRTGCFIVIDA [PTPRD],2.73 ± 1.3,2.7 ± 0.76,,
PDSMFLAMLAVVSCASIGSGEPPT [CDK11A],2.74 ± 0.15,3.222 ± 0.003,,
RIFTFICKDSESNKHLCYVFDSEK [GULP1],2.06 ± 0.56,2.21 ± 0.31,,
SDHEMREEEKLKAEEIRIKGKYNI [KCNK9],5.11 ± 0.21,5.22 ± 0.3,,
YRDLAGGTGRSAKEQVLRKGTENL [FCHSD1],4.16 ± 0.18,4.2 ± 0.33,,
SSGPGNSQNSFLVQEVMEEEWNAL [RPAIN],4.88 ± 0.2,4.92 ± 0.25,,
KRSAPSGPVRSSSGMGGRAPVSRG [RBMX],4.59 ± 0.25,4.57 ± 0.16,,
RHYAYLRDSLSHLVPALRLPGRKL [INTS4],2.31 ± 0.16,2.49 ± 0.45,,
LMVDFAQERQMLQALKFLPVPSAP [FSD1],2.21 ± 0.081,2.22 ± 0.3,,
DRARRFEEALRKNTEEQLEIALAP [MTUS2],4.9 ± 0.22,4.85 ± 0.28,,
GRNHTPFLGHHSFSVRPGTEATIS [SCNN1D],3.65 ± 0.14,3.78 ± 0.25,,
SAAYYLNDLDRIAQPNYIPTQQDV [GNAI1],3.7 ± 0.28,3.73 ± 0.24,,
LKMSYSRGLIPVKRGPSSRSGGPP [RBMY1A1],2.95 ± 0.25,3.16 ± 0.37,,
THLEGDTVQIICNTGYRLQNNENN [CFHR2],3.79 ± 0.22,3.87 ± 0.14,,
KREAGNLTKATAPDQKSSGGRDS [SSNA1],,,5.07 ± 0.23,5.25 ± 0.17
LALFSHLVNHVNIRLQAELEEGEN [SMG5],2.5 ± 0.21,2.7 ± 0.44,,
LHASTVKRYGLGAHRGRLNIQAGI [CPXM2],2.52 ± 0.12,2.51 ± 0.2,,
AVEGLTEAEEEELRAELTKVEEEI [TPD52L2],5.6 ± 0.25,5.54 ± 0.12,,
YTGMFTSSPDLDDMKLIILANRLC [RHOBTB2],2.73 ± 0.51,2.7 ± 0.51,,
